From article PMC9424959, “Single mutations toggle the substrate selectivity of multifunctional Camptotheca secologanic acid synthases” (The Journal of Biological Chemistry, 2022)
Each block holds one molecule with its values, some of them ahead of it.

Legend:
[1] = target: SLS, SLAS common ancestor (node 34) (synthetic construct); assay: Type I difference spectral titration; format: binding; conditions: read-out: Ks/mM
Description: Type I difference spectral titration on SLS, SLAS common ancestor (node 34)

CYP72A565 [2] = target: T1, CYP72A565 (Camptotheca acuminata, UniProt A0A4Y5UJ61); assay: LC-MS of secologanin formed, reconstituted with CPR1; format: biochemical; conditions: 250 uM substrate, 500 uM NADPH, Camptotheca CPR1, DLPC, 100 mM NaPO4 pH 7.5, 30 °C, 120 min
T1 construct: full-length ORF, C-terminal His6, in pCWori, expressed in E. coli, purified; kinetics with Camptotheca CPR1 and DLPC

CYP72A564 [3] = target: T2, CYP72A564 (Camptotheca acuminata, UniProt A0A7G8Z808, H132D); assay: Type I difference spectral titration; format: binding; conditions: read-out: Ks/mM
T2 construct: full-length ORF, C-terminal His6, in pCWori, expressed in E. coli, purified; kinetics with Camptotheca CPR1 and DLPC
Description: (§1) Type I difference spectral titration on CYP72A564

CYP72A564 [4] = target: T3, CYP72A564 (Camptotheca acuminata, UniProt A0A7G8Z808, H131F); assay: Type I difference spectral titration; format: binding; conditions: read-out: Ks/mM
T3 construct: full-length ORF, C-terminal His6, in pCWori, expressed in E. coli, purified; kinetics with Camptotheca CPR1 and DLPC
Description: as §1

CYP72A564 [5] = target: T4, CYP72A564 (Camptotheca acuminata, UniProt A0A7G8Z808); assay: LC-MS of secologanin formed, reconstituted with CPR1; format: biochemical; conditions: 250 uM substrate, 500 uM NADPH, Camptotheca CPR1, DLPC, 100 mM NaPO4 pH 7.5, 30 °C, 120 min
T4 construct: full-length ORF, C-terminal His6, in pCWori, expressed in E. coli, purified; kinetics with Camptotheca CPR1 and DLPC

CYP72A565 [6] = target: T5, CYP72A565 (Camptotheca acuminata, UniProt A0A4Y5UJ61, H131F/H132D); assay: Type I difference spectral titration; format: binding; conditions: read-out: Ks/mM
T5 construct: full-length ORF, C-terminal His6, in pCWori, expressed in E. coli, purified; kinetics with Camptotheca CPR1 and DLPC
Description: (§2) Type I difference spectral titration on CYP72A565

CYP72A565 [7] = target: T6, CYP72A565 (Camptotheca acuminata, UniProt A0A4Y5UJ61, H131F); assay: Type I difference spectral titration; format: binding; conditions: read-out: Ks/mM
T6 construct: full-length ORF, C-terminal His6, in pCWori, expressed in E. coli, purified; kinetics with Camptotheca CPR1 and DLPC
Description: as §2

CYP72A565 [8] = target: T7, CYP72A565 (Camptotheca acuminata, UniProt A0A4Y5UJ61, K270T); assay: Type I difference spectral titration; format: binding; conditions: read-out: Ks/mM
T7 construct: full-length ORF, C-terminal His6, in pCWori, expressed in E. coli, purified; kinetics with Camptotheca CPR1 and DLPC
Description: as §2

CYP72A564 [9] = target: T4, CYP72A564; assay: LC-MS of secologanic acid formed, reconstituted with CPR1; format: biochemical; conditions: 250 uM substrate, 500 uM NADPH, Camptotheca CPR1, DLPC, 100 mM NaPO4 pH 7.5, 30 °C, 120 min
CYP72A565 [10] = target: T1, CYP72A565; assay: as above; format: biochemical; conditions: 250 uM substrate, 500 uM NADPH, Camptotheca CPR1, DLPC, 100 mM NaPO4 pH 7.5, 30 °C, 120 min
purified protein [11] = substrate: COC(=O)C1=CO[C@@H](O[C@@H]2O[C@H](CO)[C@@H](O)[C@H](O)[C@H]2O)[C@@H]2[C@@H](C)[C@@H](O)C[C@H]12; assay: purified protein; format: biochemical, Camptotheca acuminata; conditions: ~0.8 mM NADPH, Camptotheca CPR1, 60 uM DLPC, 100 mM NaPO4 pH 7.5, 30 °C
purified protein [12] = substrate: C[C@@H]1[C@H]2[C@H](O[C@@H]3O[C@H](CO)[C@@H](O)[C@H](O)[C@H]3O)OC=C(C(=O)O)[C@H]2C[C@@H]1O; assay: purified protein; format: biochemical, Camptotheca acuminata; conditions: ~0.8 mM NADPH, Camptotheca CPR1, 60 uM DLPC, 100 mM NaPO4 pH 7.5, 30 °C

T4 sequence (A0A7G8Z808 entry or part of it): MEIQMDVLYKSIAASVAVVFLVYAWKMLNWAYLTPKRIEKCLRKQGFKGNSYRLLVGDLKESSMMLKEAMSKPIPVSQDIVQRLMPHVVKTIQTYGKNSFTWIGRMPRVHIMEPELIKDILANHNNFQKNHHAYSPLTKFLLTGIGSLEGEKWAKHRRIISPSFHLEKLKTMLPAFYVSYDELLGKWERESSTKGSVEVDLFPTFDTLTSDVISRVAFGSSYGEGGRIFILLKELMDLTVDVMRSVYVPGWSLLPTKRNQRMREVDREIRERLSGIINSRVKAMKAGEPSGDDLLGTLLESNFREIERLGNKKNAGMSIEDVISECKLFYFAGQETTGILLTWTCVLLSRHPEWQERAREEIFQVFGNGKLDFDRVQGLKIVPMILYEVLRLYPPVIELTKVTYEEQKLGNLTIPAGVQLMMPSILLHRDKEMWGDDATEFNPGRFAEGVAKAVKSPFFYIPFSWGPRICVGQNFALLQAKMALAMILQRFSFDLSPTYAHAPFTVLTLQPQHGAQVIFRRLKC
T1 sequence (A0A4Y5UJ61 entry or part of it): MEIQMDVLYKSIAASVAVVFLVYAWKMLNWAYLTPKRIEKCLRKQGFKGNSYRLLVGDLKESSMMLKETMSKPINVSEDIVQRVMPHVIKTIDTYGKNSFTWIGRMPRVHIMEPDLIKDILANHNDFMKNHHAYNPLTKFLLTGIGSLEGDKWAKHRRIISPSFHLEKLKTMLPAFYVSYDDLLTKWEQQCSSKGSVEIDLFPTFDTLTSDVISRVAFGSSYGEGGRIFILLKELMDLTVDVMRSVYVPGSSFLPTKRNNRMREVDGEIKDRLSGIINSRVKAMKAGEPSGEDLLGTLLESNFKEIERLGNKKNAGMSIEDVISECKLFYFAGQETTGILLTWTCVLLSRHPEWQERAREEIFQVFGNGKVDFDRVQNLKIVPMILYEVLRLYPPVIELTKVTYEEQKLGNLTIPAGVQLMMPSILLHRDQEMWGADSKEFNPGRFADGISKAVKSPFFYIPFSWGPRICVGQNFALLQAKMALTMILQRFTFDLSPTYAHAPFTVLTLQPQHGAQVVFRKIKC
T7 sequence (A0A4Y5UJ61 entry or part of it K270T): as the sequence (A0A4Y5UJ61 entry or part of it) above, with K270T counted along it

Kd [1]: 2.3 ± 1 mM
Kd (CYP72A564 [3]): 1.19 ± 0.048 mM
Kd (CYP72A564 [4]): 0.0547 ± 0.003 mM
Kd (CYP72A565 [6]): 0.345 ± 0.041 mM
Kd (CYP72A565 [7]): 0.283 ± 0.013 mM
Kd (CYP72A565 [8]): 1.2 ± 0.084 mM
Molecule: COC(=O)C1=CO[C@@H](O[C@@H]2O[C@H](CO)[C@@H](O)[C@H](O)[C@H]2O)[C@@H]2[C@@H](C)[C@@H](O)C[C@H]12 [loganin]
LC-MS of secologanin formed, reconstituted with CPR1 (CYP72A565 [2]): CYP72A564 consistently showed higher SLS and SLAS activity than CYP72A565
LC-MS of secologanin formed, reconstituted with CPR1 (CYP72A564 [5]): CYP72A564 consistently showed higher SLS and SLAS activity than CYP72A565

Molecule: C[C@@H]1[C@H]2[C@H](O[C@@H]3O[C@H](CO)[C@@H](O)[C@H](O)[C@H]3O)OC=C(C(=O)O)[C@H]2C[C@@H]1O [loganic acid]
LC-MS of secologanic acid formed, reconstituted with CPR1 (CYP72A564 [9]): CYP72A564 consistently showed higher SLS and SLAS activity than CYP72A565
LC-MS of secologanic acid formed, reconstituted with CPR1 (CYP72A565 [10]): CYP72A564 consistently showed higher SLS and SLAS activity than CYP72A565

B1: CYP72A564 (Camptotheca acuminata; H131F) (protein)
chain: MEIQMDVLYKSIAASVAVVFLVYAWKMLNWAYLTPKRIEKCLRKQGFKGNSYRLLVGDLKESSMMLKEAMSKPIPVSQDIVQRLMPHVVKTIQTYGKNSFTWIGRMPRVHIMEPELIKDILANHNNFQKNFHAYSPLTKFLLTGIGSLEGEKWAKHRRIISPSFHLEKLKTMLPAFYVSYDELLGKWERESSTKGSVEVDLFPTFDTLTSDVISRVAFGSSYGEGGRIFILLKELMDLTVDVMRSVYVPGWSLLPTKRNQRMREVDREIRERLSGIINSRVKAMKAGEPSGDDLLGTLLESNFREIERLGNKKNAGMSIEDVISECKLFYFAGQETTGILLTWTCVLLSRHPEWQERAREEIFQVFGNGKLDFDRVQGLKIVPMILYEVLRLYPPVIELTKVTYEEQKLGNLTIPAGVQLMMPSILLHRDKEMWGDDATEFNPGRFAEGVAKAVKSPFFYIPFSWGPRICVGQNFALLQAKMALAMILQRFSFDLSPTYAHAPFTVLTLQPQHGAQVIFRRLKC
notes: full-length ORF, C-terminal His6, in pCWori, expressed in E. coli, purified; kinetics with Camptotheca CPR1 and DLPC
Km (purified protein [11]): 50 ± 10 µM
kcat (purified protein [11]): 0.132 ± 0.00333 s⁻¹
kcat/Km (purified protein [11]): 2480 ± 300 M⁻¹ s⁻¹

B2: CYP72A564 (Camptotheca acuminata; R270T) (protein)
chain: MEIQMDVLYKSIAASVAVVFLVYAWKMLNWAYLTPKRIEKCLRKQGFKGNSYRLLVGDLKESSMMLKEAMSKPIPVSQDIVQRLMPHVVKTIQTYGKNSFTWIGRMPRVHIMEPELIKDILANHNNFQKNHHAYSPLTKFLLTGIGSLEGEKWAKHRRIISPSFHLEKLKTMLPAFYVSYDELLGKWERESSTKGSVEVDLFPTFDTLTSDVISRVAFGSSYGEGGRIFILLKELMDLTVDVMRSVYVPGWSLLPTKRNQRMREVDREITERLSGIINSRVKAMKAGEPSGDDLLGTLLESNFREIERLGNKKNAGMSIEDVISECKLFYFAGQETTGILLTWTCVLLSRHPEWQERAREEIFQVFGNGKLDFDRVQGLKIVPMILYEVLRLYPPVIELTKVTYEEQKLGNLTIPAGVQLMMPSILLHRDKEMWGDDATEFNPGRFAEGVAKAVKSPFFYIPFSWGPRICVGQNFALLQAKMALAMILQRFSFDLSPTYAHAPFTVLTLQPQHGAQVIFRRLKC
notes: as for B1
Km (purified protein [12]): 3540 ± 510 µM
kcat (purified protein [12]): 0.333 ± 0.0267 s⁻¹
kcat/Km (purified protein [12]): 95 ± 15 M⁻¹ s⁻¹

B3: CYP72A564 (Camptotheca acuminata; H132D) (protein)
chain: MEIQMDVLYKSIAASVAVVFLVYAWKMLNWAYLTPKRIEKCLRKQGFKGNSYRLLVGDLKESSMMLKEAMSKPIPVSQDIVQRLMPHVVKTIQTYGKNSFTWIGRMPRVHIMEPELIKDILANHNNFQKNHDAYSPLTKFLLTGIGSLEGEKWAKHRRIISPSFHLEKLKTMLPAFYVSYDELLGKWERESSTKGSVEVDLFPTFDTLTSDVISRVAFGSSYGEGGRIFILLKELMDLTVDVMRSVYVPGWSLLPTKRNQRMREVDREIRERLSGIINSRVKAMKAGEPSGDDLLGTLLESNFREIERLGNKKNAGMSIEDVISECKLFYFAGQETTGILLTWTCVLLSRHPEWQERAREEIFQVFGNGKLDFDRVQGLKIVPMILYEVLRLYPPVIELTKVTYEEQKLGNLTIPAGVQLMMPSILLHRDKEMWGDDATEFNPGRFAEGVAKAVKSPFFYIPFSWGPRICVGQNFALLQAKMALAMILQRFSFDLSPTYAHAPFTVLTLQPQHGAQVIFRRLKC
notes: as for B1
Km (purified protein [11]): 1440 ± 60 µM
kcat (purified protein [11]): 0.228 ± 0.005 s⁻¹
kcat/Km (purified protein [11]): 158 ± 8.33 M⁻¹ s⁻¹

B4: CYP72A565 (Camptotheca acuminata; H131F) (protein)
chain: MEIQMDVLYKSIAASVAVVFLVYAWKMLNWAYLTPKRIEKCLRKQGFKGNSYRLLVGDLKESSMMLKETMSKPINVSEDIVQRVMPHVIKTIDTYGKNSFTWIGRMPRVHIMEPDLIKDILANHNDFMKNFHAYNPLTKFLLTGIGSLEGDKWAKHRRIISPSFHLEKLKTMLPAFYVSYDDLLTKWEQQCSSKGSVEIDLFPTFDTLTSDVISRVAFGSSYGEGGRIFILLKELMDLTVDVMRSVYVPGSSFLPTKRNNRMREVDGEIKDRLSGIINSRVKAMKAGEPSGEDLLGTLLESNFKEIERLGNKKNAGMSIEDVISECKLFYFAGQETTGILLTWTCVLLSRHPEWQERAREEIFQVFGNGKVDFDRVQNLKIVPMILYEVLRLYPPVIELTKVTYEEQKLGNLTIPAGVQLMMPSILLHRDQEMWGADSKEFNPGRFADGISKAVKSPFFYIPFSWGPRICVGQNFALLQAKMALTMILQRFTFDLSPTYAHAPFTVLTLQPQHGAQVVFRKIKC
notes: as for B1
Km (purified protein [11]): 290 ± 80 µM
kcat (purified protein [11]): 0.128 ± 0.01 s⁻¹
kcat/Km (purified protein [11]): 445 ± 130 M⁻¹ s⁻¹

B5: CYP72A565 (Camptotheca acuminata; H131F/H132D) (protein)
chain: MEIQMDVLYKSIAASVAVVFLVYAWKMLNWAYLTPKRIEKCLRKQGFKGNSYRLLVGDLKESSMMLKETMSKPINVSEDIVQRVMPHVIKTIDTYGKNSFTWIGRMPRVHIMEPDLIKDILANHNDFMKNFDAYNPLTKFLLTGIGSLEGDKWAKHRRIISPSFHLEKLKTMLPAFYVSYDDLLTKWEQQCSSKGSVEIDLFPTFDTLTSDVISRVAFGSSYGEGGRIFILLKELMDLTVDVMRSVYVPGSSFLPTKRNNRMREVDGEIKDRLSGIINSRVKAMKAGEPSGEDLLGTLLESNFKEIERLGNKKNAGMSIEDVISECKLFYFAGQETTGILLTWTCVLLSRHPEWQERAREEIFQVFGNGKVDFDRVQNLKIVPMILYEVLRLYPPVIELTKVTYEEQKLGNLTIPAGVQLMMPSILLHRDQEMWGADSKEFNPGRFADGISKAVKSPFFYIPFSWGPRICVGQNFALLQAKMALTMILQRFTFDLSPTYAHAPFTVLTLQPQHGAQVVFRKIKC
notes: as for B1
Km (purified protein [11]): 1710 ± 100 µM
kcat (purified protein [11]): 0.53 ± 0.0233 s⁻¹
kcat/Km (purified protein [11]): 280 ± 18.3 M⁻¹ s⁻¹
